Test results as given in paper PMC6274998, “Mycobacterium tuberculosis ClpC1 N-Terminal Domain Is Dispensable for Adaptor Protein-Dependent Allosteric Regulation” (International Journal of Molecular Sciences, 2018).

Molecular target: T1, ∆NTD-ClpC1 (ClpC1 truncation mutant lacking N-terminal residues M1-Y145) (Mycobacterium tuberculosis H37Rv, UniProt P9WPC9 146-848)
T1 construct: ClpC1, M. tuberculosis H37Rv, Rv3596c, lacking N-terminal residues M1-Y145 (begins at residue 146); also called ∆NTD-ClpC1 truncation; not shown: His6-SUMO, N-terminal, cleaved
T1 sequence: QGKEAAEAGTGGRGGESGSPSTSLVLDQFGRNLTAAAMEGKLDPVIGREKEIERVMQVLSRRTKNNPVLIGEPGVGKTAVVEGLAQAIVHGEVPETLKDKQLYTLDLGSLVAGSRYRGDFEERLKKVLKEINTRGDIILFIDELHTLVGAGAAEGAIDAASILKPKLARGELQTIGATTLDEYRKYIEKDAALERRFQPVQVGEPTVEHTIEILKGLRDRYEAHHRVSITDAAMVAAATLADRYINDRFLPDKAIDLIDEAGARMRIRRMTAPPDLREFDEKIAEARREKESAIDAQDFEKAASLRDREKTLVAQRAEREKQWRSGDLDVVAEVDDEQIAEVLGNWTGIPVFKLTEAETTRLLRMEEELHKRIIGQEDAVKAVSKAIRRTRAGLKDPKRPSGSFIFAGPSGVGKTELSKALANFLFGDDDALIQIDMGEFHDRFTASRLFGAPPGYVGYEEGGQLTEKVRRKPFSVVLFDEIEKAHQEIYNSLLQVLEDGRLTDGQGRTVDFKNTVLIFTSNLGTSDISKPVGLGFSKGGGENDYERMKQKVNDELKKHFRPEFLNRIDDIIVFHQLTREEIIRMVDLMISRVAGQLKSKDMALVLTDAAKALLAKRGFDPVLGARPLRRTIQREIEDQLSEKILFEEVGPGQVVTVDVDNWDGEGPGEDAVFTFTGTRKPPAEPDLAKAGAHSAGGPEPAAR
Assay: pull-down
Settings: both partners purified

B1: His6-SUMO-ClpS (Mycobacterium tuberculosis ClpS adaptor protein, His6-SUMO fusion) (natural protein)
chain: MAVVSAPAKPGTTWQRESAPVDVTDRAWVTIVWDDPVNLMSYVTYVFQKLFGYSEPHATKLMLQVHNEGKAVVSAGSRESMEVDVSKLHAAGLWATMQQDR
notes: also called His6-ClpS; His6-tagged ClpS; not shown: His6, N-terminal, kept; SUMO, N-terminal, kept
B1: binds.
